What all share (experiment): MST
For assay [1], the target named is NT-Als9-2-Ig (N′-terminal domain of C. albicans Als9, allele Als9-2, fused to the Fc domain of human IgG1) (C. albicans).
Assay [2] deals with T1, PVR-Ig (extracellular portion of human PVR fused to the Fc domain of human IgG1) (human, UniProt P15151 21-343).
T1 chain: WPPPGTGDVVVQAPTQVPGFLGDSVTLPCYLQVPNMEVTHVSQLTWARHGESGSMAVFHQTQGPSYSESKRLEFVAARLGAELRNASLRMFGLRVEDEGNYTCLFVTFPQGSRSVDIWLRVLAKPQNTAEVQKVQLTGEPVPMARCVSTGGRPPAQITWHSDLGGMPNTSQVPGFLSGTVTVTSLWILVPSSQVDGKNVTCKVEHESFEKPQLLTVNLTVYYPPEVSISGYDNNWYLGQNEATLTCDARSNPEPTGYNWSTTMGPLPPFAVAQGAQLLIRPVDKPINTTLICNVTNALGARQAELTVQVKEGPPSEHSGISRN

The target in assay [3] is T2, NT-Als6-Ig (N′-terminal domain of C. albicans Als6 fused to the Fc domain of human IgG1) (C. albicans, UniProt Q5A2Z7 19-329).
T2 chain: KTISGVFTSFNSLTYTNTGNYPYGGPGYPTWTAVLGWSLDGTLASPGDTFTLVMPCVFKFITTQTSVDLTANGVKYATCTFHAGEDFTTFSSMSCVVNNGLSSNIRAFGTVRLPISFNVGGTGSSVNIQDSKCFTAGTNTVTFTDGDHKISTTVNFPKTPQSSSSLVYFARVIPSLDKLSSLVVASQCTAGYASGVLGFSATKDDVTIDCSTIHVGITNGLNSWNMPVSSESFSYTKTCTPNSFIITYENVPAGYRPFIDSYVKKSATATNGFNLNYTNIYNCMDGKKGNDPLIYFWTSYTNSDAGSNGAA

Assay [4] has as its target T3, NT-Als7-Ig (N′-terminal domain of C. albicans Als7 fused to the Fc domain of human IgG1) (C. albicans, UniProt Q5A312 19-329).
T3 chain: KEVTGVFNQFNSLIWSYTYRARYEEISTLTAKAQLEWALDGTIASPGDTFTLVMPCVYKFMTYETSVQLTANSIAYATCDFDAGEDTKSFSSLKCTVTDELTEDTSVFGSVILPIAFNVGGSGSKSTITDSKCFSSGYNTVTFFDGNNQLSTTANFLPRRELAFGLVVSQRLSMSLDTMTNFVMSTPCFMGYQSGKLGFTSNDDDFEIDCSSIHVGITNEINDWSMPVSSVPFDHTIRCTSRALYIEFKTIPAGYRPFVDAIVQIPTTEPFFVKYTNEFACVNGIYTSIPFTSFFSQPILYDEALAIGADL

B1: TIGIT-Ig (extracellular ligand-binding domain of human TIGIT fused to the Fc domain of human IgG1) (Fc fusion)
chain: MMTGTIETTGNISAEKGGSIILQCHLSSTTAQVTQVNWEQQDQLLAICNADLGWHISPSFKDRVAPGPGLGLTLQSLTVNDTGEYFCIYHTYPDGTYTGRIFLEVLESSVAEHGARFQIP
modifications: fluorescently labeled with the Monolith NT Protein Labeling Kit RED-NHS
As usually defined, the Kd is the free concentration of one partner at which half of the binding sites on the other are occupied at equilibrium, for simple one-to-one binding. As for B1, the Kd in assay [1] worked out at 455 nM; in assay [2] it was 49 nM; in assay [3], 6 nM; in assay [4], 42 nM.

(Values after PMC9072312 (2022).)
